The values below come from patent US20060287501A1 (Pieris, published 2006).

Assay [1] concerns the target T1, BSA (bovine, UniProt P02769 25-607).
T1 construct: Control antigen
The experiment in a line: ELISA; BSA as antigen.

The target of assay [2] is T2, recombinant Nogo-A fragment NI-Fr2 (rat, UniProt Q9JK11 233-941, labelled with digoxigenin (molar ratio 5:1) in the colony screening assay).
T2 construct: Truncated rat Nogo-A with C-terminal Strep-tag, made in the E. coli periplasm; also called MI-Fr2; wild-type NI-Fr2
T2 sequence: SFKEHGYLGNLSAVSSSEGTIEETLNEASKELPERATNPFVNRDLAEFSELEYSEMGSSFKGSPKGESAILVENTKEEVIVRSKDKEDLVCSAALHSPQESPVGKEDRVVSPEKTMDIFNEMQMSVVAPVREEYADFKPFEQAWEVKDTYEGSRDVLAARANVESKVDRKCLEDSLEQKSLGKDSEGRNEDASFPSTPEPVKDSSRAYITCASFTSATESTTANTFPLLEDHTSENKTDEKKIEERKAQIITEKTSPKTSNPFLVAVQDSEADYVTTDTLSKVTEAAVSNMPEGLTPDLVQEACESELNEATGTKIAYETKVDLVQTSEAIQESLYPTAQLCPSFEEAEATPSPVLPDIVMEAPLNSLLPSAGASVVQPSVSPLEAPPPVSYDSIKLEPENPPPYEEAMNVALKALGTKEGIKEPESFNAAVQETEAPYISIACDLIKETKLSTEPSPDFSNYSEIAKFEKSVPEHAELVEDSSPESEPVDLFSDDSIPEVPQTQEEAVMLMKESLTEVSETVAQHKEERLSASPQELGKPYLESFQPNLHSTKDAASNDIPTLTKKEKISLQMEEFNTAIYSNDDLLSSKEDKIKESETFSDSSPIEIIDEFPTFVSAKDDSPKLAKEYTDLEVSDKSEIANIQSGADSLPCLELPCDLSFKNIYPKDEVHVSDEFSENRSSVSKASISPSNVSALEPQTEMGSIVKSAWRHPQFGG
The assay is described as follows: ELISA, wells coated with NI-Fr2, bound Fab detected with anti-human Ckappa antibody-alkaline phosphatase, delta A405/delta t. As to the method:
Antigen-binding activity of the mutant Fab fragments was subsequently tested by ELISA using the recombinant NI-Fr2 for coating of the microtitre plate wells (FIG. 2).
ELISA was carried out in a 96 well microtitre plate (Becton Dickinson, Heidelberg, Germany) at ambient temperature with incubation steps of 1 h unless otherwise stated. Three washing steps with PBS/T were used after each incubation, and residual liquid was removed thoroughly. The wells were coated for 4 h with 50 μl of a solution of MI-Fr2 at concentrations between 180 and 200 μg/ml in PBS buffer and then blocked with 200 μl 3% (w/v) BSA, 0.5% (v/v) Tween 20 in PBS. After washing, 50 μl of the purified recombinant Fab fragment was applied at a dilution series in PBS/T. The wells were then incubated with 50 μl anti-human Cκ antibody conjugated with alkaline phosphatase (Sigma), diluted 1:1000 in PBS/T. Signals were finally developed in the presence of p-nitrophenyl phosphate (Voss and Skerra, (1997) Protein Eng., 10, 975-982). Enzymatic activity was measured at 25° C. as the change in absorbance at 405 nm per min with a SpectraMAX 250 instrument (Molecular Devices, Sunnyvale, Calif.). The data were corrected for background values determined in wells that were merely coated with BSA and fitted by non-linear least squares regression as described by Voss and Skerra, supra
(In general: An ELISA detects its analyte on a solid surface through an enzyme-linked reagent.)

The target in assay [3] is T3, recombinant Nogo-A fragment NI-Fr4 (rat, UniProt Q9JK11 233-941).
T3 construct: Truncated rat Nogo-A with N-terminal Strep-tag II and C-terminal His6
T3 sequence: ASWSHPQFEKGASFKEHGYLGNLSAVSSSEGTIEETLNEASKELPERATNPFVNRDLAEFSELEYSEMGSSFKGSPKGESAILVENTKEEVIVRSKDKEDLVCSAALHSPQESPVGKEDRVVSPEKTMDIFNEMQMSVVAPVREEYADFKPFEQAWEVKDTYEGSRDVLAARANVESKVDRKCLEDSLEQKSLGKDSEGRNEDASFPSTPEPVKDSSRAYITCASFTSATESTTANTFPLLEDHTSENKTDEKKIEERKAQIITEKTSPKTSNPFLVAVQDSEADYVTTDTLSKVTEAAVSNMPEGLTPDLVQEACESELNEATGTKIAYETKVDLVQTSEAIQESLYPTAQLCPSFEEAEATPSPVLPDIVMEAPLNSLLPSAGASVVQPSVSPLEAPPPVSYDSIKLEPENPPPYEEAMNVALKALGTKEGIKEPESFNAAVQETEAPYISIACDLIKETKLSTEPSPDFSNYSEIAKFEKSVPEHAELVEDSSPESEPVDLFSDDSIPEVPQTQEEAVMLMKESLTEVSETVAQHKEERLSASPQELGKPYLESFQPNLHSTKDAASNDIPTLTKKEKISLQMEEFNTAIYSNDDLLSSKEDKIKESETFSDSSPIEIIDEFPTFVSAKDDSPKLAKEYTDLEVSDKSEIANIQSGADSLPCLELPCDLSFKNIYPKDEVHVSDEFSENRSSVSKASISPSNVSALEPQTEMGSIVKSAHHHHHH
The experiment in a line: SPR (Biacore X); NI-Fr4 on Ni/NTA chip via His6, Fab (pASK107, Strep-tag II) at 0.25-6.8 µM, equilibrium fit. As to the method: (§1) The thermodynamic affinity for the recombinant Nogo-A fragment NI-Fr4 was determined both for the II.1.8 mutant and for the wild-type IN-1 Fab fragment using the method of real time surface plasmon resonance (SPR) on a Biacore-X® system equipped with an Ni/NTA-derivatized sensor chip® (Biacore AB, Uppsala, Sweden). PBS containing 0.005% (v/v) surfactant P20 was used as continuous flow buffer as well as for dilution of proteins. Analysis was performed at 25° C. using a flow rate of 35 μl/min.
(§2) Then the Fab fragment (produced by means of the vector pASK107 and purified via the Strep-tag II; see Example 1)) was injected at a defined concentration (between 0.25 and 6.8 μM) for 2 minutes, followed by buffer flow for 4 minutes. The chip surface was regenerated using 70 μl 0.35 M EDTA, pH 8.0 in flow buffer prior to the next measurement. Each time-dependent binding isotherm of the Fab fragment was corrected for the background signal that was detected in the flow channel without NI-Fr4 using BIAevaluation software (Version 3.0). Resonance unit values for the bound Fab fragment at equilibrium for each applied concentration were then deduced and fitted (Voss and Skerra, supra) by non-linear least squares regression using an equation of the type y=a*x/(b+x). […]
A general note: Surface plasmon resonance follows binding to a sensor surface in real time, without labels.

Assay [4] concerns the target T3, recombinant Nogo-A fragment NI-Fr4. The experiment in a line: SPR (Biacore X); NI-Fr4 on Ni/NTA chip, equilibrium fit. Here is the method:
as §1, §2

Where a chain is given by its changes, count along the chain named.

T1 sequence (P02769 25-607 limits assumed): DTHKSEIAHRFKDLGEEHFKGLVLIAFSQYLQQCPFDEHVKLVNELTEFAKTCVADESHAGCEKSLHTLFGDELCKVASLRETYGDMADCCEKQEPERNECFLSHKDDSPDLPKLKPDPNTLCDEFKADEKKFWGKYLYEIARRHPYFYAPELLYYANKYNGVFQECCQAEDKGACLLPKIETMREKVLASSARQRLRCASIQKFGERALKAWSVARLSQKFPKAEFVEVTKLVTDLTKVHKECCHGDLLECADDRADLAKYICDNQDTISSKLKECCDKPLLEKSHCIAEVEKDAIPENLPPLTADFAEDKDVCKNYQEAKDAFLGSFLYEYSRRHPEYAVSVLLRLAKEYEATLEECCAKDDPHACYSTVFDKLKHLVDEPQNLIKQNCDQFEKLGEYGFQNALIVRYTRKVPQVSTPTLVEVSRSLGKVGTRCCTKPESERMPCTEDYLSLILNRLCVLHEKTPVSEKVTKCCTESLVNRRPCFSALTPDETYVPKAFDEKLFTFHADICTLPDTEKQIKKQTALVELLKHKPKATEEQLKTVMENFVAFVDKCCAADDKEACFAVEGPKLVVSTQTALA

B1: I.2.6 Fab fragment (IN-1 mutant) (Fab, V domains shown)
VH: EVKLHESGPGLVRPGTSVKISCKASGYTFTNYWLGWVKQRPGHGLEWIGDIYPGGGYTNYNEKFKGKATLTADTSSSTAYMQLSSLTSEDSAVYFCARFYYGSSYWYFDVWGQGTTVTVSS
VL: DIELTQSPAIMAASVGETVTITCGASENIYGALNWYQRKQGKSPQLLIYGATNLADGMSSRFSGSGSGRQYSLKISSLHPDDVATYYCQNVLRVPCTFGAGTKLEIK
notes: Chimeric Fab, human IgG1/kappa constant domains; also called mutant I.2.6; original I.2.6 Fab fragment
With B1, the binding result in assay [1] is on record as “no binding”; in assay [2] it was “binds”.

B2: II.1.8 Fab fragment (Fab, V domains shown)
VH: B1 VH
VL: B1 VL with V91I, L92N, C96V
notes: also called II.1.8 mutant; antibody fragment II.1.8
For orientation: Kd means the constant that tells how readily two partners part at equilibrium. Consider B2, for which the dissociation constant Kd in assay [3] turned out to be 1040 nM. Also, the “fold improvement of KD over the wild-type IN-1 Fab fragment” value in assay [4] was determined as 8 fold.
